Measurements: patent US20240076396A1

Assays:
[1] = target: human GITR expressed on the cell surface (human) (UniProt Q9Y5U5); experiment: flow cytometry, AF647 antibody at 200 nM; human primary CD8+ CD25+ T-cells, donor 26001
[2] = target: cynomolgus monkey GITR expressed on the cell surface (Macaca fascicularis (cynomolgus monkey)); experiment: flow cytometry, AF647 antibody at 200 nM; cynomolgus primary CD4+ CD69+ T-cells, donor 58947
[3] = target: human GITR expressed on the cell surface (human) (UniProt Q9Y5U5); experiment: flow cytometry, AF647 antibody at 200 nM; human primary CD4+ CD25+ T-cells, donor 7900C
[4] = target: cynomolgus monkey GITR expressed on the cell surface (Macaca fascicularis (cynomolgus monkey)); experiment: flow cytometry, AF647 antibody at 200 nM; cynomolgus primary CD4+ CD69+ T-cells, donor 58945
[5] = target: human GITR expressed on the cell surface (human) (UniProt Q9Y5U5); experiment: flow cytometry, AF647 antibody at 200 nM; human primary CD8+ CD25+ T-cells, donor 7900C
[6] = target: cynomolgus monkey GITR expressed on the cell surface (Macaca fascicularis (cynomolgus monkey)); experiment: flow cytometry, AF647 antibody at 200 nM; cynomolgus primary CD8+ CD69+ T-cells, donor 58946
[7] = target: cynomolgus monkey GITR expressed on the cell surface (Macaca fascicularis (cynomolgus monkey)); experiment: flow cytometry, AF647 antibody at 200 nM; cynomolgus primary non-activated CD4+ CD69- T-cells, donor 58945
[8] = target: human GITR expressed on the cell surface (human) (UniProt Q9Y5U5); experiment: flow cytometry, AF647 antibody at 200 nM; human primary CD4+ CD25+ T-cells, donor 2700*
[9] = target: human GITR expressed on the cell surface (human) (UniProt Q9Y5U5); experiment: flow cytometry, AF647 antibody at 200 nM; human primary CD4+ CD25+ T-cells, donor 8700C
[10] = target: cynomolgus monkey GITR expressed on the cell surface (Macaca fascicularis (cynomolgus monkey)); experiment: flow cytometry, AF647 antibody at 200 nM; cynomolgus primary non-activated CD8+ CD69- T-cells, donor 58946
[11] = target: Jurkat/hCD20 cells (human CD20, no GITR; negative control cell line) (human) (UniProt P11836); experiment: flow cytometry on Jurkat/hCD20 control cells, 18 pM to 300 nM
[12] = target: human GITR expressed on the cell surface (human) (UniProt Q9Y5U5); experiment: flow cytometry, AF647 antibody at 200 nM; human primary non-activated CD4+ CD25- T-cells, donor 7900C
[13] = target: human GITR expressed on the cell surface (human) (UniProt Q9Y5U5); experiment: flow cytometry on Jurkat/hCD20/hGITR cells; max MFI over secondary antibody alone
[14] = target: human GITR expressed on the cell surface (human) (UniProt Q9Y5U5); experiment: flow cytometry, AF647 antibody at 200 nM; human primary non-activated CD4+ CD25- T-cells, donor 26001
[15] = target: human GITR expressed on the cell surface (human) (UniProt Q9Y5U5); experiment: flow cytometry, AF647 antibody at 200 nM; human primary non-activated CD4+ CD25- T-cells, donor 8700C
[16] = target: cynomolgus monkey GITR expressed on the cell surface (Macaca fascicularis (cynomolgus monkey)); experiment: flow cytometry, AF647 antibody at 200 nM; cynomolgus primary CD8+ CD69+ T-cells, donor 58948
[17] = target: cynomolgus monkey GITR expressed on the cell surface (Macaca fascicularis (cynomolgus monkey)); experiment: flow cytometry, AF647 antibody at 200 nM; cynomolgus primary non-activated CD8+ CD69- T-cells, donor 58945
[18] = target: cynomolgus monkey GITR expressed on the cell surface (Macaca fascicularis (cynomolgus monkey)); experiment: flow cytometry, AF647 antibody at 200 nM; cynomolgus primary CD4+ CD69+ T-cells, donor 58948
[19] = target: cynomolgus monkey GITR expressed on the cell surface (Macaca fascicularis (cynomolgus monkey)); experiment: flow cytometry, AF647 antibody at 200 nM; cynomolgus primary non-activated CD8+ CD69- T-cells, donor 58948
[20] = target: human GITR expressed on the cell surface (human) (UniProt Q9Y5U5); experiment: flow cytometry on Jurkat/hCD20/hGITR cells, 18 pM to 300 nM
[21] = target: cynomolgus monkey GITR expressed on the cell surface (Macaca fascicularis (cynomolgus monkey)); experiment: flow cytometry, AF647 antibody at 200 nM; cynomolgus primary CD8+ CD69+ T-cells, donor 58945
[22] = target: human GITR expressed on the cell surface (human) (UniProt Q9Y5U5); experiment: flow cytometry, AF647 antibody at 200 nM; human primary non-activated CD4+ CD25- T-cells, donor 2700*
[23] = target: hGITR.mmH (soluble monomeric recombinant human GITR ectodomain protein) (human); experiment: blocking ELISA: 1.5 nM hGITR.mmH pre-incubated with antibody (up to 3 µM), binding to plate-coated hGITR-L
[24] = target: cynomolgus monkey GITR expressed on the cell surface (Macaca fascicularis (cynomolgus monkey)); experiment: flow cytometry on Jurkat/hCD20/MfGITR cells; max MFI over secondary antibody alone
[25] = target: cynomolgus monkey GITR expressed on the cell surface (Macaca fascicularis (cynomolgus monkey)); experiment: flow cytometry, AF647 antibody at 200 nM; cynomolgus primary non-activated CD4+ CD69- T-cells, donor 58947
[26] = target: human GITR expressed on the cell surface (human) (UniProt Q9Y5U5); experiment: flow cytometry, AF647 antibody at 200 nM; human primary CD8+ CD25+ T-cells, donor 2700*
[27] = target: cynomolgus monkey GITR expressed on the cell surface (Macaca fascicularis (cynomolgus monkey)); experiment: flow cytometry, AF647 antibody at 200 nM; cynomolgus primary CD8+ CD69+ T-cells, donor 58947
[28] = target: human GITR expressed on the cell surface (human) (UniProt Q9Y5U5); experiment: flow cytometry, AF647 antibody at 200 nM; human primary non-activated CD8+ CD25- T-cells, donor 7900C
[29] = target: human GITR expressed on the cell surface (human) (UniProt Q9Y5U5); experiment: flow cytometry, AF647 antibody at 200 nM; human primary non-activated CD8+ CD25- T-cells, donor 26001
[30] = target: Jurkat/hCD20 cells (human CD20, no GITR; negative control cell line) (human) (UniProt P11836); experiment: flow cytometry on Jurkat/hCD20 control cells; max MFI over secondary antibody alone
[31] = target: cynomolgus monkey GITR expressed on the cell surface (Macaca fascicularis (cynomolgus monkey)); experiment: flow cytometry, AF647 antibody at 200 nM; cynomolgus primary non-activated CD4+ CD69- T-cells, donor 58948
[32] = target: human GITR expressed on the cell surface (human) (UniProt Q9Y5U5); experiment: flow cytometry, AF647 antibody at 200 nM; human primary non-activated CD8+ CD25- T-cells, donor 8700C
[33] = target: cynomolgus monkey GITR expressed on the cell surface (Macaca fascicularis (cynomolgus monkey)); experiment: flow cytometry, AF647 antibody at 200 nM; cynomolgus primary CD4+ CD69+ T-cells, donor 58946
[34] = target: cynomolgus monkey GITR expressed on the cell surface (Macaca fascicularis (cynomolgus monkey)); experiment: flow cytometry on Jurkat/hCD20/MfGITR cells, 18 pM to 300 nM
[35] = target: human GITR expressed on the cell surface (human) (UniProt Q9Y5U5); experiment: flow cytometry, AF647 antibody at 200 nM; human primary CD4+ CD25+ T-cells, donor 26001
[36] = target: human GITR expressed on the cell surface (human) (UniProt Q9Y5U5); experiment: flow cytometry, AF647 antibody at 200 nM; human primary non-activated CD8+ CD25- T-cells, donor 2700*
[37] = target: human GITR expressed on the cell surface (human) (UniProt Q9Y5U5); experiment: flow cytometry, AF647 antibody at 200 nM; human primary CD8+ CD25+ T-cells, donor 8700C
[38] = target: cynomolgus monkey GITR expressed on the cell surface (Macaca fascicularis (cynomolgus monkey)); experiment: flow cytometry, AF647 antibody at 200 nM; cynomolgus primary non-activated CD8+ CD69- T-cells, donor 58947
[39] = target: cynomolgus monkey GITR expressed on the cell surface (Macaca fascicularis (cynomolgus monkey)); experiment: flow cytometry, AF647 antibody at 200 nM; cynomolgus primary non-activated CD4+ CD69- T-cells, donor 58946

Sequence of human GITR expressed on the cell surface (human) (Q9Y5U5 26-241 limits assumed): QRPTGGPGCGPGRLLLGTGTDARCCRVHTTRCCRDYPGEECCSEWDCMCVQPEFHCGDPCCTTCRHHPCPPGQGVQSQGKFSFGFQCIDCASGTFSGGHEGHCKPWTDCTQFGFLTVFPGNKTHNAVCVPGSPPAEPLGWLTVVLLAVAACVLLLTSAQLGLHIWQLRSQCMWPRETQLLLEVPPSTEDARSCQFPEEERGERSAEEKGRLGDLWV
Sequence of Jurkat/hCD20 cells (human CD20, no GITR; negative control cell line) (human) (P11836 whole entry): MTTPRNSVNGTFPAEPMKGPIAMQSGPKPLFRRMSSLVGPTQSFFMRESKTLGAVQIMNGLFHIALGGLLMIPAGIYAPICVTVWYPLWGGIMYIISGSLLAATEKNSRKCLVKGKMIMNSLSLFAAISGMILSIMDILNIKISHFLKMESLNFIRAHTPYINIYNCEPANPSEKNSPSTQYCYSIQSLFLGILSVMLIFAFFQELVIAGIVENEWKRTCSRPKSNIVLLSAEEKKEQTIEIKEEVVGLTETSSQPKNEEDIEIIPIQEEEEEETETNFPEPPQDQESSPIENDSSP
Sequence of hGITR.mmH (soluble monomeric recombinant human GITR ectodomain protein) (human) (chain, as listed by the source limits assumed): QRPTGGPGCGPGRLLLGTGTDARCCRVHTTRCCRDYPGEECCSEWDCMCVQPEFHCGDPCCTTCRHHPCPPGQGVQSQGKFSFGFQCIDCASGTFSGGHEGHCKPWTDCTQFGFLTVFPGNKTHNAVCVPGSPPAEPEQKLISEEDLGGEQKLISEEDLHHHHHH

A Max MFI [1] of 1100 MFI, a Max MFI [2] of 1230 MFI and a Max MFI [3] of 2280 MFI were found for IgG1 isotype control (antibody) in this work. It also gave a Max MFI [4] of 1110 MFI, a Max MFI [5] of 2090 MFI and a Max MFI [6] of 650 MFI. For the same substance, the Max MFI [7] was 730 MFI, the Max MFI [8] was 2080 MFI and the Max MFI [9] was 1920 MFI. The Max MFI [10] was 455 MFI, the Max MFI [11] was 1070 MFI and the Max MFI [12] was 1330 MFI. For the same substance, the Fold Binding [13] was 1.09 fold, the Max MFI [14] was 827 MFI and the Max MFI [15] was 1060 MFI. It also gave a Max MFI [16] of 1130 MFI, a Max MFI [17] of 565 MFI and a Max MFI [18] of 1030 MFI. The Max MFI [19] was 512 MFI, the Max MFI [20] was 1090 MFI and the Max MFI [21] was 1090 MFI. The Max MFI [22] was 1410 MFI, the % Max Inhibition [23] was -6% and the Fold Binding [24] was 1.1 fold. The Max MFI [25] was 825 MFI, the Max MFI [26] was 1990 MFI and the Max MFI [27] was 921 MFI. The Max MFI [28] was 1140 MFI, the Max MFI [29] was 644 MFI and the Fold Binding [30] was 1.15 fold. The Max MFI [31] was 817 MFI, the Max MFI [32] was 1780 MFI and the Max MFI [33] was 803 MFI. The Max MFI [34] was 1360 MFI, the Max MFI [35] was 1230 MFI and the Max MFI [36] was 1130 MFI. It also gave a Max MFI [37] of 1970 MFI, a Max MFI [38] of 601 MFI and a Max MFI [39] of 650 MFI.
